Laboratory results from PMC2174254 (The Journal of Cell Biology, 1999).

Key:
Assay in all cases: cross-linking
[1] = target: T1, PDI deletion mutant Δ252–277 (S. cerevisiae, UniProt P17967 29-522, Δ252–277, N-glycosylated (endoglycosidase H sensitive))
T1 sequence (looked up): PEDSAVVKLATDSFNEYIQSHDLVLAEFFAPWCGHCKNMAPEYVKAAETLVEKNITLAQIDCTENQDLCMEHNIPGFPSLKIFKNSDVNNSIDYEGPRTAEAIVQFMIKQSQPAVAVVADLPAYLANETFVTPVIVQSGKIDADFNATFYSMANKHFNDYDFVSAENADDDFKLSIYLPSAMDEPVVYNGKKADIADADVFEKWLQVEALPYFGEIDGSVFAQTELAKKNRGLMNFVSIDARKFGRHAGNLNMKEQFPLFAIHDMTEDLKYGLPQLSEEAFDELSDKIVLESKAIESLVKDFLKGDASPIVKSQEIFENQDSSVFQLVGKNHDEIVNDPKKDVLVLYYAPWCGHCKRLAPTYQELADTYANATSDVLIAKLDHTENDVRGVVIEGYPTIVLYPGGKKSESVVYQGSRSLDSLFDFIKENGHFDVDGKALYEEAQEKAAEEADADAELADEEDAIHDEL

[2] = target: T2, PDI deletion mutant Δ222–302 (S. cerevisiae, UniProt P17967 29-522, Δ222–302, N-glycosylated (endoglycosidase H sensitive))
T2 sequence (looked up): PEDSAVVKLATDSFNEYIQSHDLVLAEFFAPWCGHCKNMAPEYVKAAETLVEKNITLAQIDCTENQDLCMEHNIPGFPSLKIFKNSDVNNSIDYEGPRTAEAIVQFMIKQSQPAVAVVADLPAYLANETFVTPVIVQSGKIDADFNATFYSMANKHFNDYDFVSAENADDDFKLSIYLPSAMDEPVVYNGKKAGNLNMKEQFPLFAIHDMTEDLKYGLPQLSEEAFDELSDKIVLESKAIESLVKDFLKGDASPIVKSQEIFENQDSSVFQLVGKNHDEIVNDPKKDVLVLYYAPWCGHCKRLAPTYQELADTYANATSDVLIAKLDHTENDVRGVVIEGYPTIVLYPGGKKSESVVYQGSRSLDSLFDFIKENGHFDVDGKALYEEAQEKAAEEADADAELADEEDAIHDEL

[3] = target: T1, PDI deletion mutant Δ252–277; remark: listed apart in the source
[4] = target: T2, PDI deletion mutant Δ222–302; remark: listed apart in the source

B1: BiP, heavy chain binding protein (natural protein)
chain: not shown
fold reduction of BiP coimmunoprecipitated with Δgpαf present against absent [1]: 1.3 fold
fold decrease of BiP coimmunoprecipitated with Δgpαf present against absent [2]: 4.7 fold
fold reduction of affinity compared with wild-type PDI [3]: ~2.8 fold
BiP immunoprecipitated relative to wild-type PDI [4]: 2.7 fold
